According to patent publication US20250027060A1 (VIB VZW, published 2025):
Each block holds one binder with its values, some of them ahead of it.

Experiments:
[1] = target: T1, ALKTG (human ALK amino acids 648-985) (human, UniProt Q9UM73 648-985, N-linked glycans; EndoH-trimmed for crystals and SEC-MALLS); experiment: ITC
T1 construct: Fc-His6 tag removed by caspase 3; also called ALK TG supradomain
Method: (§1) Experiments were performed using a MicroCal PEAQ-ITC instrument at 310K. Proteins used in ITC experiments were expressed in HEK293S cells grown in suspension. As a final purification step all proteins were buffer exchanged to the same HBS buffer via size-exclusion chromatography. Titrations were preceded by an initial injection of 0.5 μL. The injection spacing was optimized per experiment to allow for the signal to get back to a stable baseline. Throughout the titration the sample was stirred at a speed of 750 r.p.m. Data were analyzed using the PEAQ-ITC analysis software (version 1.1.0.1262, Malvern) and fit using a “one set of sites” model.

[2] = target: T2, ALKFL (full-length human ALK ectodomain, amino acids 19-1025) (human, UniProt Q9UM73 19-1025); experiment: ITC at 310 K, ALKFL (8 µM) titrated with ALKAL2 (82 µM), one-site model
T2 construct: Fc-His6 tag removed by caspase 3; also called full-length ALK ectodomain
T2 sequence (Q9UM73 19-1025): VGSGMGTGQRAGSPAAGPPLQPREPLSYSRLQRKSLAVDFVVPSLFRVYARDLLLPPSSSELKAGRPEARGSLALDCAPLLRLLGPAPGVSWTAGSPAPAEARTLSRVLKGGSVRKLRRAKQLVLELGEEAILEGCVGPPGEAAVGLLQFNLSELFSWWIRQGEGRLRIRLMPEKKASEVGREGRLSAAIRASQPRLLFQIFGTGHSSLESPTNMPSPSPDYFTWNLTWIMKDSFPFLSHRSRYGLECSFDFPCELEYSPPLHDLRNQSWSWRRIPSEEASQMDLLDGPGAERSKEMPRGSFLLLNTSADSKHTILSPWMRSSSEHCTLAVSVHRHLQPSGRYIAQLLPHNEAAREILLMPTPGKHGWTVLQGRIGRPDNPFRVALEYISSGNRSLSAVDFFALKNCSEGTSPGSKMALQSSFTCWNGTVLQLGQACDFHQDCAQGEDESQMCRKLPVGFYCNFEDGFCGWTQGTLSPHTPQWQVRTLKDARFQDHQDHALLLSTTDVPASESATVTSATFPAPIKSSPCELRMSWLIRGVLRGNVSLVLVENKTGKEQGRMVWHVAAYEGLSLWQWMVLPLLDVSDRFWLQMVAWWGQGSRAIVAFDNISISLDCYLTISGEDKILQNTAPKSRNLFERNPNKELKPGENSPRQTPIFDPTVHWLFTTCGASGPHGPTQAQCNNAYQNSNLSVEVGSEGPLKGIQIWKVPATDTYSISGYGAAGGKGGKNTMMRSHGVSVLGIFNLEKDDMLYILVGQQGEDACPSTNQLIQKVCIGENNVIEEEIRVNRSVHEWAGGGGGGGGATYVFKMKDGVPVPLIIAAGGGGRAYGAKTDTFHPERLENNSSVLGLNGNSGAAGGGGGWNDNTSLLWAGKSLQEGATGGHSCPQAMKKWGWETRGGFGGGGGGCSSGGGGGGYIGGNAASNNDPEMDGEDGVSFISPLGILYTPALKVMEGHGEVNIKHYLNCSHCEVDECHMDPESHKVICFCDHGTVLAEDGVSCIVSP

[3] = target: T3, LTKTG-EGFL (human LTK amino acids 63-420) (human, UniProt P29376 63-420); experiment: BLI, biotinylated ALKAL2 on streptavidin biosensors, LTKTG-EGFL in solution 300 nM to 11 nM, 2:1 binding model, component 2
T3 construct: Fc-His6 tag removed by caspase 3; also called LTK (in BLI, SEC-MALLS and ITC)
T3 sequence: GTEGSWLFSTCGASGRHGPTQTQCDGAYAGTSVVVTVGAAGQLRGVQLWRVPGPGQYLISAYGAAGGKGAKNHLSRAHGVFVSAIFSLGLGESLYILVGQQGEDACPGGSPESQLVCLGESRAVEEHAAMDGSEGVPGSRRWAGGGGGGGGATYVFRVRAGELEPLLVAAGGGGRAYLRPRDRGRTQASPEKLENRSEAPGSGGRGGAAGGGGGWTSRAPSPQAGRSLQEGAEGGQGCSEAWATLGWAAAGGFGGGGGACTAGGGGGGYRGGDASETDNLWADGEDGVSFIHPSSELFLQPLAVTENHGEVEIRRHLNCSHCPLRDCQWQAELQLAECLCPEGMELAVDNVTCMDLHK
Source text: (§2) FIGS. 10A and 10B Representative response curves as measure by biolayer-interferometry (BLI) for the interaction of WT ALKAL1 and ALKAL1 mutants (containing charge-reversal mutations of residues involved in site 1) (FIG. 10A) and WT ALKAL2 and ALKAL2 mutants (FIG. 10B) with ALK_TG-EGFL and LTK_TG-EGFL. For WT ALKALs LTK curves were fitted with a 2:1 binding model (red) while for ALK a 1:1 model was used. Start and end concentrations of the 3-fold dilution series used for the WT measurements is shown as an inset while for all mutants a […] dilution series from 6.4 μM-400 nM was used.
(§3) All measurements of binding kinetics and dissociation constants were performed using an Octet Red 96 (Forté Bio) in assay buffer (20 mM HEPES pH 7.4, 150 mM NaCl, 0.02% (w/v) BSA, 0.002% (v/v) Tween 20) at 298K. ALKALs were immobilized to a level of 0.5 nm on streptavidin-coated biosensors (Forté Bio). To verify that no a specific binding was present during the assay, non-functionalized biosensors were used as a control by measuring in parallel all ligand concentrations as well as running buffer. For all mutants a two-fold dilution series from 6.4 μM-400 nM was employed. Data analysis was performed using the Data Analysis software 9.0.0.14 (Forté Bio) and binding curves were exported to Prism8 (Graphpad Software) for plotting of curves.

[4] = target: T4, ALKTG-EGFL (human ALK amino acids 648-1025) (human, UniProt Q9UM73 648-1025, N-linked glycans; EndoH-trimmed (deglycosylated) for crystals and SEC-MALLS); experiment: ITC at 310 K, ALKTG-EGFL (10 µM) titrated with ALKAL2 (100 µM), one-site model
T4 construct: The C-terminal Fc-His6 tag was removed by caspase 3; also called ALK (in BLI, SEC-MALLS and ITC)
T4 sequence (Q9UM73 648-1025): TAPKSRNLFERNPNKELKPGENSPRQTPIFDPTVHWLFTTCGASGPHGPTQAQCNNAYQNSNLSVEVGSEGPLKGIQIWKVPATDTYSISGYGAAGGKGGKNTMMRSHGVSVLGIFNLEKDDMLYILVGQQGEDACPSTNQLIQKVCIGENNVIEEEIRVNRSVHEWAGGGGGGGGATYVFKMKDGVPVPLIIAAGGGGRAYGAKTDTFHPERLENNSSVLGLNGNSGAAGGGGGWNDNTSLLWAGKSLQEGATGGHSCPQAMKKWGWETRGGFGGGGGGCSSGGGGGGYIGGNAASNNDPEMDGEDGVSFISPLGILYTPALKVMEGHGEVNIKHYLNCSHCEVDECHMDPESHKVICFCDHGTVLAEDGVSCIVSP
Method: (§4) FIG. 5A and FIG. 5B Isothermal titration calorimetry thermograms for the titration of ALK_TG-EGFL (10 μM) with ALKAL2 (100 μM) (FIG. 5A) and titration of ALKAL1 (25 μM) with ALK_TG-EGFL (210 μM) (FIG. 5B). […] The right panel represents the binding isotherm obtained from the integration of the raw data and fitted to a one-site model. Standard deviations were calculated based on 3 measurements.
as §1

[5] = target: T5, LTKTG (human LTK amino acids 63-379) (human, UniProt P29376 63-379); experiment: ITC at 310 K, LTKTG (10 µM) titrated with ALKAL2 (100 µM), one-site model
T5 construct: also called LTK TG supradomain
T5 sequence: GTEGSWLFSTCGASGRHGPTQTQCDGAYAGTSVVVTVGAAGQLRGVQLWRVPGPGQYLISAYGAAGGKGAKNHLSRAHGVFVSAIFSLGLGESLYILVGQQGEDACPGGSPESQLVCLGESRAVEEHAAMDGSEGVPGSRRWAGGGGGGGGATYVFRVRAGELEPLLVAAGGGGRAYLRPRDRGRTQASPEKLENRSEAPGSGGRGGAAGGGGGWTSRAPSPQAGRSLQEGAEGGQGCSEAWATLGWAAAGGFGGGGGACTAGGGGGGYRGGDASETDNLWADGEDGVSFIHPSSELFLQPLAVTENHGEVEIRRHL
Method: FIG. 12G, ITC experiments for the titration of LTKTG (10 μM) with ALKAL2 (100 μM) Standard deviations were calculated based on 2 measurements.
as §1

[6] = target: T3, LTKTG-EGFL (human LTK amino acids …); experiment: BLI, biotinylated ALKAL2 on streptavidin biosensors, LTKTG-EGFL in solution 300 nM to 11 nM, 2:1 binding model, component 1
Source text: as §2, §3

[7] = target: T3, LTKTG-EGFL (human LTK amino acids …); experiment: ITC, 310 K, one-site model, 2:1 stoichiometry
Method: (§5) The right panel represents the binding isotherm obtained from the integration of the raw data and fitted to a one-site model. Standard deviations were calculated based on 3 measurements.
as §1

[8] = target: T4, ALKTG-EGFL (human ALK amino acids …); experiment: BLI, biotinylated ALKAL2 on streptavidin biosensors, ALKTG-EGFL in solution 800 nM to 12.5 nM, 1:1 model
Source text: as §2, §3

[9] = target: T3, LTKTG-EGFL (human LTK amino acids …); experiment: ITC at 310 K, LTKTG-EGFL (12 µM) titrated with ALKAL2 (56 µM), one-site model
Method: as §5, §1

[10] = target: T1, ALKTG (human ALK amino acids 648-985); experiment: ITC at 310 K, ALKAL2 (33 µM) titrated with ALKTG (330 µM), one-site model
Method: FIG. 5D, Titration of ALKAL2 (33 μM) with ALKTG (330 μM) Standard deviations were calculated based on 3 measurements.
as §1

[11] = target: T4, ALKTG-EGFL (human ALK amino acids …); experiment: ITC, 310 K, one-site model
Method: as §4, §1

[12] = target: T3, LTKTG-EGFL (human LTK amino acids …); experiment: BLI, biotinylated ALKAL2 R123E on streptavidin biosensors, LTKTG-EGFL in solution, dilution series 6.4 µM-400 nM
Source text: as §2, §3

[13] = target: T4, ALKTG-EGFL (human ALK amino acids …); experiment: BLI, biotinylated ALKAL2 R123E on streptavidin biosensors, ALKTG-EGFL in solution, dilution series 6.4 µM-400 nM
Source text: as §2, §3

[14] = target: T3, LTKTG-EGFL (human LTK amino acids …); experiment: BLI, biotinylated ALKAL2 H100A on streptavidin biosensors, LTKTG-EGFL in solution, dilution series 6.4 µM-400 nM, biphasic fit, component 2
Source text: as §2, §3

[15] = target: T3, LTKTG-EGFL (human LTK amino acids …); experiment: BLI, biotinylated ALKAL2 H100A on streptavidin biosensors, LTKTG-EGFL in solution, dilution series 6.4 µM-400 nM, biphasic fit, component 2; the sheet prints x0^-1, taken as x10^-1
Source text: as §2, §3

[16] = target: T3, LTKTG-EGFL (human LTK amino acids …); experiment: BLI, biotinylated ALKAL2 H100A on streptavidin biosensors, LTKTG-EGFL in solution, dilution series 6.4 µM-400 nM, biphasic fit, component 1
Source text: as §2, §3

T1 sequence (Q9UM73 648-985 limits assumed): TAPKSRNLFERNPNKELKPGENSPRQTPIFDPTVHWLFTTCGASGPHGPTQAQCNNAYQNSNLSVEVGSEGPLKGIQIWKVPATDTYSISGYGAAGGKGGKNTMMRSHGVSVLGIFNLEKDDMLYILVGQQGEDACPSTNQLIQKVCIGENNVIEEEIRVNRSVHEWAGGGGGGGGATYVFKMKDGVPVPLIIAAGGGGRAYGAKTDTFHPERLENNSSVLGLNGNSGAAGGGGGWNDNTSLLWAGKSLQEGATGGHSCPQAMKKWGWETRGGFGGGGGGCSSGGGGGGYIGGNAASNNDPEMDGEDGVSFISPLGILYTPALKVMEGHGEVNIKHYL

fold decrease in affinity against ALKTG-EGFL [1]: 30 fold | Kd [2]: 70 nM | ΔG [2]: -9.4 kcal/mol | ΔH [2]: -9.7 kcal/mol | Kd [3]: 350 nM | koff [3]: 0.0005 s⁻¹ | kon [3]: 4000 M⁻¹ s⁻¹ | ΔG [4]: -10.6 kcal/mol | ΔH [4]: -10.1 kcal/mol | Kd [5]: 6.8 nM | ΔG [5]: -11.6 kcal/mol | ΔH [5]: -30.2 kcal/mol | Kd [6]: 100 nM | koff [6]: 0.0037 s⁻¹ | kon [6]: 28000 M⁻¹ s⁻¹ | Kd [7]: 55 nM | Kd [8]: 135 nM | Kd [9]: 10 nM | ΔG [9]: -11.4 kcal/mol | ΔH [9]: -31 kcal/mol | Kd [10]: 1300 nM | ΔG [10]: -8.34 kcal/mol | ΔH [10]: -8.3 kcal/mol | Kd [11]: 40 nM
B1: ALKAL2 (truncated, residues 78-152) (ligand, human, UniProt Q6UX46 78-152, looked up)
chain: PSPEQRVEIVPRDLRMKDKFLKHLTGPLYFSPKCSKHFHRLYHNTRDCTIPAYYKRCARLLTRLAVSPVCMEDKQ
notes: range 78-152; Tag-free in ITC, SEC-MALLS, crystals and Ba/F3 assays; also called ALKAL2^WT; WT ALKAL2

Kd [12]: 2300 nM | Kd [13]: 3500 nM
B2: ALKAL2^R123E (residues 78-152) (ligand, human, UniProt Q6UX46 78-152, looked up)
chain: PSPEQRVEIVPRDLRMKDKFLKHLTGPLYFSPKCSKHFHRLYHNTEDCTIPAYYKRCARLLTRLAVSPVCMEDKQ
notes: range 78-152; also called ALKAL2 site 1 mutant R123E

Kd [14]: 3000 nM | kon [14]: 53000 M⁻¹ s⁻¹ | koff [15]: 0.16 s⁻¹ | Kd [16]: 280 nM | koff [16]: 0.00082 s⁻¹ | kon [16]: 2900 M⁻¹ s⁻¹
B3: ALKAL2^H100A (residues 78-152) (ligand, human, UniProt Q6UX46 78-152, looked up)
chain: PSPEQRVEIVPRDLRMKDKFLKALTGPLYFSPKCSKHFHRLYHNTRDCTIPAYYKRCARLLTRLAVSPVCMEDKQ
notes: range 78-152; Avi-tagged and biotinylated in BLI; also called ALKAL2 site 2 mutant H100A
